Experiments:
[1] = target: T1, CD86-mIgG (Ancell, Inc) (UniProt P42081 24-247, limits assumed); assay: SPR (BIAcore T100), CD86-mIgG immobilized on CM5; first site
T1 construct: Bought reagent
T1 sequence (looked up): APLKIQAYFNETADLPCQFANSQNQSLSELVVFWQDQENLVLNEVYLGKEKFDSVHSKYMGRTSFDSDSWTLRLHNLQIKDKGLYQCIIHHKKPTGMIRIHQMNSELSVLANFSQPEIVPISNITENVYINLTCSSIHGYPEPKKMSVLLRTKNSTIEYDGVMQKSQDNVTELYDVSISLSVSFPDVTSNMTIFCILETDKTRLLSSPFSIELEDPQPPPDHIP
Procedure: (§1) SPR measurements were performed on a BIAcore™ T100 SPR (Pharmacia Biotech AB, Uppsala) using HBS-EP+ (GE Healthcare) as a running buffer. […] CTLA4-containing constructs were injected for 150 seconds, at a flow rate of 10 μl/min, in a series of concentrations from 4 nM to 10 μM. Dissociation was monitored for 600 seconds, and the surface was either regenerated by injecting 50 mM sodium citrate, 500 mM sodium chloride, pH 5.0, for 60 seconds (wild type CTLA4) or 10 mM glycine, pH 1.7 (L104E A29Y CTLA4). […] Data were analyzed using BiaEvaluation for the T100 software (version 2.0.1, GE Healthcare).
(§2) SPR measurements were performed as listed above, with the following exceptions: HBS-P+ (GE Healthcare) was used as a running buffer; dissociation was monitored for 1200 seconds; and the surface was regenerated by injecting 10 mM glycine, pH 1.7, for 60 seconds.

[2] = target: T1, CD86-mIgG (Ancell, Inc); assay: SPR (BIAcore T100), CD86-mIgG immobilized on CM5; second site
Procedure: as §1, §2

[3] = target: T1, CD86-mIgG (Ancell, Inc); assay: SPR (BIAcore T100), CD86-mIgG immobilized on CM5; steady-state equilibrium fit
Procedure: as §1, §2

B1: IL10::3D1 xceptor (Fc fusion)
chain: SPGQGTQSENSCTHFPGNLPNMLRDLRDAFSRVKTFFQMKDQLDNLLLKESLLEDFKGYLGCQALSEMIQFYLEEVMPQAENQDPDIKAHVNSLGENLKTLRLRLRRCHRFLPCENKSKAVEQVKNAFNKLQEKGIYKAMSEFDIFINYIEAYITMKIRNLEPKSSDKTHTCPPCPAPEAAGAPSVFLFPPKPKDTLMISRTPEVTCVVVDVSHEDPEVKFNWYVDGVEVHNAKTKPREEQYNSTYRVVSVLTVLHQDWLNGKAYACAVSNKALPAPIEKTISKAKGQPREPQVYTLPPSRDELTKNQVSLTCLVKGFYPSDIAVEWESNGQPENNYKTTPPVLDSDGSFFLYSKLTVDKSRWQQGNVFSCSVMHEALHNHYTQKSLSLSPGNSLFNQEVQIPLTESYSPNSQVQLQQSGPELVRPGESVKISCKGSGYTFTDYAIQWVKQSHAKSLEWIGVINIYYDNTNYNQKFKGKATMTVDKSSSTAYMELARLTSEDSAIYYCARAAWYMDYWGQGTSVTVSSGGGGSGGGGSGGGGSGGGGSDIVLSQSPSSLAVSAGEKVTMSCKSSQSLLNSRTRENYLAWYQQKPGQSPKLLIYWASTRESGVPDRFTGSGSGTDFTLTISSVQAEDLAVYYCTQSYNLYTFGGGTKLEIK
With B1 the koff [1] was 8.3e-05 s⁻¹, the kon [1] was 617000 M⁻¹ s⁻¹ and the “Second Site ka” value [2] was 0.0124 s⁻¹. For the same binder, the “Second Site kd” value [2] was 0.102 s⁻¹ and the Kd [3] was 35.7 nM.

B2: FUN1 mAb (parent murine anti-CD86 monoclonal antibody) (antibody, V domains shown)
VH: EVQLQQSGPELEKPGASVKISCKASGYSFTDYNMNWVKQSNGKSLEWIGNIDPYYGGTSYNQKFKGKATLTVDKSSSTAYMQLNSLTSEDSAVYFCARWDYRYDDGRAYYVMDFWGQGTSVTVSS
VL: ELQMTQSPSSLAASAGEKVTMSCKSSQSVLYSSNQKNYLAWYQQKPGQSPKLLIYWASTRESGVPDRFTGSGSGTHFTLTVSSVQAEDLAVYYCHQYLYSWTFGGGTNLEIKR
notes: Murine monoclonal antibody; also called FUN1 antibody
B2 was tested, and the koff [1] was 2.28e-05 s⁻¹, the kon [1] was 129000 M⁻¹ s⁻¹ and the “Second Site ka” value [2] was 0.00278 s⁻¹. The “Second Site kd” value [2] was 0.0154 s⁻¹ and the Kd [3] was 36 nM.

B3: FUN1-11 humanized FUN1 SMIP (Fc fusion)
chain: EVQLVQSGAEVKKPGATVKISCKVSGYTFTDYNMNWVQQAPGKGLEWMGNIDPYYGGTSYNQKFKGRVTITADTSTDTAYMELSSLRSEDTAVYYCATWDYRYDDGRAYYVMDFWGQGTTVTVSSGGGGSGGGGSGGGGSGGGGSDIVMTQSPDSLAVSLGERATINCKSSQSVLYSSNQKNYLAWYQQKPGQPPKLLIYWASTRESGVPDRFSGSGSGTDFTLTISSLQAEDVAVYYCHQYLYSWTFGQGTKLEIKRLEPKSSDKTHTCPPCPAPEAAGAPSVFLFPPKPKDTLMISRTPEVTCVVVDVSHEDPEVKFNWYVDGVEVHNAKTKPREEQYNSTYRVVSVLTVLHQDWLNGKAYACAVSNKALPAPIEKTISKAKGQPREPQVYTLPPSRDELTKNQVSLTCLVKGFYPSDIAVEWESNGQPENNYKTTPPVLDSDGSFFLYSKLTVDKSRWQQGNVFSCSVMHEALHNHYTQKSLSLSPG
notes: SMIP: scFv-hinge-Fc single chain
B3 was tested, and the koff [1] was 0.00035 s⁻¹, the kon [1] was 13900 M⁻¹ s⁻¹ and the “Second Site ka” value [2] was 7.5e-05 s⁻¹. The “Second Site kd” value [2] was 1.25e-06 s⁻¹ and the Kd [3] was 119 nM.

B4: FUN1-21 humanized FUN1 SMIP (Fc fusion)
chain: QVQLVQSGAEVKKPGASVKVSCKASGYTFTDYNMNWVRQAPGQGLEWMGNIDPYYGGTSYNQKFKGRVTMTRDTSISTAYMELSRLRSDDTAVYYCARWDYRYDDGRAYYVMDFWGQGTTVTVSSGGGGSGGGGSGGGGSGGGGSDIVMTQSPDSLAVSLGERATINCKSSQSVLYSSNQKNYLAWYQQKPGQPPKLLIYWASTRESGVPDRFSGSGSGTDFTLTISSLQAEDVAVYYCHQYLYSWTFGQGTKLEIKRLEPKSSDKTHTCPPCPAPEAAGAPSVFLFPPKPKDTLMISRTPEVTCVVVDVSHEDPEVKFNWYVDGVEVHNAKTKPREEQYNSTYRVVSVLTVLHQDWLNGKAYACAVSNKALPAPIEKTISKAKGQPREPQVYTLPPSRDELTKNQVSLTCLVKGFYPSDIAVEWESNGQPENNYKTTPPVLDSDGSFFLYSKLTVDKSRWQQGNVFSCSVMHEALHNHYTQKSLSLSPG
notes: as for B3
In the case of B4, the koff [1] is reported as 0.000139 s⁻¹, the kon [1] is reported as 186000 M⁻¹ s⁻¹ and the “Second Site ka” value [2] is reported as 0.00578 s⁻¹. For the same binder, the “Second Site kd” value [2] was 0.0127 s⁻¹ and the Kd [3] was 26.9 nM.

B5: FUN1-21 PIMS (Fc fusion)
chain: EPKSSDKTHTCPPCPAPEAAGAPSVFLFPPKPKDTLMISRTPEVTCVVVDVSHEDPEVKFNWYVDGVEVHNAKTKPREEQYNSTYRVVSVLTVLHQDWLNGKAYACAVSNKALPAPIEKTISKAKGQPREPQVYTLPPSRDELTKNQVSLTCLVKGFYPSDIAVEWESNGQPENNYKTTPPVLDSDGSFFLYSKLTVDKSRWQQGNVFSCSVMHEALHNHYTQKSLSLSPGNSLFNQEVQIPLTESYSPNSQVQLVQSGAEVKKPGASVKVSCKASGYTFTDYNMNWVRQAPGQGLEWMGNIDPYYGGTSYNQKFKGRVTMTRDTSISTAYMELSRLRSDDTAVYYCARWDYRYDDGRAYYVMDFWGQGTTVTVSSGGGGSGGGGSGGGGSGGGGSDIVMTQSPDSLAVSLGERATINCKSSQSVLYSSNQKNYLAWYQQKPGQPPKLLIYWASTRESGVPDRFSGSGSGTDFTLTISSLQAEDVAVYYCHQYLYSWTFGQGTKLEIKR
notes: PIMS: humanized FUN1-21 scFv at the carboxy-terminus
B5 was tested, and the koff [1] was 9.1e-05 s⁻¹, the kon [1] was 50000 M⁻¹ s⁻¹ and the “Second Site ka” value [2] was 0.00113 s⁻¹. The “Second Site kd” value [2] was 0.00837 s⁻¹ and the Kd [3] was 70.9 nM.

B6: IL10::FUN1-21 xceptor (Fc fusion)
chain: SPGQGTQSENSCTHFPGNLPNMLRDLRDAFSRVKTFFQMKDQLDNLLLKESLLEDFKGYLGCQALSEMIQFYLEEVMPQAENQDPDIKAHVNSLGENLKTLRLRLRRCHRFLPCENKSKAVEQVKNAFNKLQEKGIYKAMSEFDIFINYIEAYITMKIRNLEPKSSDKTHTCPPCPAPEAAGAPSVFLFPPKPKDTLMISRTPEVTCVVVDVSHEDPEVKFNWYVDGVEVHNAKTKPREEQYNSTYRVVSVLTVLHQDWLNGKAYACAVSNKALPAPIEKTISKAKGQPREPQVYTLPPSRDELTKNQVSLTCLVKGFYPSDIAVEWESNGQPENNYKTTPPVLDSDGSFFLYSKLTVDKSRWQQGNVFSCSVMHEALHNHYTQKSLSLSPGNSLFNQEVQIPLTESYSPNSQVQLVQSGAEVKKPGASVKVSCKASGYTFTDYNMNWVRQAPGQGLEWMGNIDPYYGGTSYNQKFKGRVTMTRDTSISTAYMELSRLRSDDTAVYYCARWDYRYDDGRAYYVMDFWGQGTTVTVSSGGGGSGGGGSGGGGSGGGGSDIVMTQSPDSLAVSLGERATINCKSSQSVLYSSNQKNYLAWYQQKPGQPPKLLIYWASTRESGVPDRFSGSGSGTDFTLTISSLQAEDVAVYYCHQYLYSWTFGQGTKLEIKR
B6 was tested, and the koff [1] was 0.000128 s⁻¹, the kon [1] was 158000 M⁻¹ s⁻¹ and the “Second Site ka” value [2] was 0.0064 s⁻¹. For the same binder, the “Second Site kd” value [2] was 0.0387 s⁻¹ and the Kd [3] was 98.6 nM.

B7: (IL10 I87A::FUN1-21)-75 xceptor (Fc fusion)
chain: SPGQGTQSENSCTHFPGNLPNMLRDLRDAFSRVKTFFQMKDQLDNLLLKESLLEDFKGYLGCQALSEMIQFYLEEVMPQAENQDPDAKAHVNSLGENLKTLRLRLRRCHRFLPCENKSKAVEQVKNAFNKLQEKGIYKAMSEFDIFINYIEAYITMKIRNLEPKSSDKTHTCPPCPAPEAAGAPSVFLFPPKPKDTLMISRTPEVTCVVVDVSHEDPEVKFNWYVDGVEVHNAKTKPREEQYNSTYRVVSVLTVLHQDWLNGKAYACAVSNKALPAPIEKTISKAKGQPREPQVYTLPPSRDELTKNQVSLTCLVKGFYPSDIAVEWESNGQPENNYKTTPPVLDSDGSFFLYSKLTVDKSRWQQGNVFSCSVMHEALHNHYTQKSLSLSPGQRHNNSSLNTGTQMAGHSPNSQVQLVQSGAEVKKPGASVKVSCKASGYTFTDYNMNWVRQAPGQGLEWMGNIDPYYGGTSYNQKFKGRVTMTRDTSISTAYMELSRLRSDDTAVYYCARWDYRYDDGRAYYVMDFWGQGTTVTVSSGGGGSGGGGSGGGGSGGGGSDIVMTQSPDSLAVSLGERATINCKSSQSVLYSSNQKNYLAWYQQKPGQPPKLLIYWASTRESGVPDRFSGSGSGTDFTLTISSLQAEDVAVYYCHQYLYSWTFGQGTKLEIKR
For B7, the koff [1] was 0.000433 s⁻¹, the kon [1] was 40700 M⁻¹ s⁻¹ and the “Second Site ka” value [2] was 0.0198 s⁻¹. For the same binder, the “Second Site kd” value [2] was 0.0579 s⁻¹ and the Kd [3] was 88.5 nM.

B8: (monoIL10-A2 hinge::FUN1-21)-75 xceptor (Fc fusion)
chain: SPGQGTQSENSCTHFPGNLPNMLRDLRDAFSRVKTFFQMKDQLDNLLLKESLLEDFKGYLGCQALSEMIQFYLEEVMPQAENQDPDIKAHVNSLGENLKTLRLRLRRCHRFLPCENGGGSGGKSKAVEQVKNAFNKLQEKGIYKAMSEFDIFINYIEAYITMKIRNLEPPPPPCPPCPAPEAAGAPSVFLFPPKPKDTLMISRTPEVTCVVVDVSHEDPEVKFNWYVDGVEVHNAKTKPREEQYNSTYRVVSVLTVLHQDWLNGKAYACAVSNKALPAPIEKTISKAKGQPREPQVYTLPPSRDELTKNQVSLTCLVKGFYPSDIAVEWESNGQPENNYKTTPPVLDSDGSFFLYSKLTVDKSRWQQGNVFSCSVMHEALHNHYTQKSLSLSPGQRHNNSSLNTGTQMAGHSPNSQVQLVQSGAEVKKPGASVKVSCKASGYTFTDYNMNWVRQAPGQGLEWMGNIDPYYGGTSYNQKFKGRVTMTRDTSISTAYMELSRLRSDDTAVYYCARWDYRYDDGRAYYVMDFWGQGTTVTVSSGGGGSGGGGSGGGGSGGGGSDIVMTQSPDSLAVSLGERATINCKSSQSVLYSSNQKNYLAWYQQKPGQPPKLLIYWASTRESGVPDRFSGSGSGTDFTLTISSLQAEDVAVYYCHQYLYSWTFGQGTKLEIKR
notes: also called monoIL10::FUN1-21
B8 was tested, and the koff [1] was 0.000344 s⁻¹, the kon [1] was 12600 M⁻¹ s⁻¹ and the “Second Site ka” value [2] was 0.011 s⁻¹. The “Second Site kd” value [2] was 0.0111 s⁻¹ and the Kd [3] was 178 nM.

Source: patent US20120100139A1 (APTEVO RESEARCH AND DEVELOPMENT, published 2012)
